Results taken from patent publication CN116173202A (BEIJING DONGFANG BIOTECH CO LTD, dated 2023).
Residue numbers refer to the chain shown, from its start. Where two headings read alike, the source gives them in different places.

B1: MA-Ⅰ 鼠源抗LILRB4单克隆抗体 (mouse IgG1 / mouse Ck) (antibody)
heavy: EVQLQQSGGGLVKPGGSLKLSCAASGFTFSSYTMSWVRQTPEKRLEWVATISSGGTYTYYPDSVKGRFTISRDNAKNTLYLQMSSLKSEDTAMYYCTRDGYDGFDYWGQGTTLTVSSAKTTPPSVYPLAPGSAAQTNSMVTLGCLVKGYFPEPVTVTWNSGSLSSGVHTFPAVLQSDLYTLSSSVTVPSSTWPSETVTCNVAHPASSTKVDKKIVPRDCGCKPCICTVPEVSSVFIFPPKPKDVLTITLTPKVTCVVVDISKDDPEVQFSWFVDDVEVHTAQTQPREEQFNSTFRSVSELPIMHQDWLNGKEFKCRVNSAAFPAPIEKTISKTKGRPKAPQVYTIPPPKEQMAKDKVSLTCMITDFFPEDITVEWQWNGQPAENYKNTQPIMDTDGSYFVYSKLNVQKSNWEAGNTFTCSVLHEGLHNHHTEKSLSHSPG
light: DIVMTQTTLSLPVSPGDQASISCRSSQSLAHSNGNTYLHWYLQKPGQSPKLLIYKVSNRFSGVPDRFSGSGSGTDFTLKISRVEAEDLGVYFCSQSTLVPTFGGGTKLEIKADAAPTVSIFPPSSEQLTSGGASVVCFLNNFYPKDINVKWKIDGSERQNGVLNSWTDQDSKDSTYSMSSTLTLTKDEYERHNSYTCEATHKTSTSPIVKSFNRNEC
B2: MB-Ⅰ 鼠源抗LILRB4单克隆抗体 (mouse IgG1 / mouse Ck) (antibody)
heavy: QVQLQESGAELVKPGASVKLSCKASGYTFTNYWMHWVKQRPGQGLEWIGEINPSNGRTNYNEKFKTKATLTVDKSSSTAYMQLSSLTSEDSAVYYCARWGQLGLREGYYAVDYWGQGTSVTVSSAKTTPPSVYPLAPGSAAQTNSMVTLGCLVKGYFPEPVTVTWNSGSLSSGVHTFPAVLQSDLYTLSSSVTVPSSTWPSETVTCNVAHPASSTKVDKKIVPRDCGCKPCICTVPEVSSVFIFPPKPKDVLTITLTPKVTCVVVDISKDDPEVQFSWFVDDVEVHTAQTQPREEQFNSTFRSVSELPIMHQDWLNGKEFKCRVNSAAFPAPIEKTISKTKGRPKAPQVYTIPPPKEQMAKDKVSLTCMITDFFPEDITVEWQWNGQPAENYKNTQPIMDTDGSYFVYSKLNVQKSNWEAGNTFTCSVLHEGLHNHHTEKSLSHSPG
light: DIVMTQSPSSLSASLGDRVTISCRASQDISNYLNWYQQKPDGTVKLLIYYTSRLHSGVPSRFSGSGSGTDYSLTISNLEQEDIATYFCQQGNTLPPTFGGGTKLEIKADAAPTVSIFPPSSEQLTSGGASVVCFLNNFYPKDINVKWKIDGSERQNGVLNSWTDQDSKDSTYSMSSTLTLTKDEYERHNSYTCEATHKTSTSPIVKSFNRNEC
B3: 人源化抗体HA-Ⅱ (human IgG1 / human Ck) (antibody, V domains shown)
VH: EVQLVESGGGLVKPGGSLRLSCAASGFTFSSYTMSWVRQAPGKGLEWVATISSGGTYTYYPDSVKGRFTISRDNAKNSLYLQMNSLRAEDTAVYYCARDGYDGFDYWGQGTTVTVSS
VL: DIVMTQTPLSLSVTPGQPASISCRSSQSLAHSNGNTYLHWYLQKPGQSPQLLIYKVSNRFSGVPDRFSGSGSGTDFTLKISRVEAEDVGVYFCSQSTHVPTFGGGTKVEIKR
B4: 人源化抗体HA-Ⅰ (human IgG1 / human Ck) (antibody, V domains shown)
VH: B3 VH with A49S
VL: B3 VL with F92Y
B5: 人源化抗体HA-Ⅲ (human IgG1 / human Ck) (antibody, V domains shown)
VH: B3 VH with A97T
VL: B3 VL with Q50K

Legend:
Assay in all cases: cell-based or functional assay
[1] = molecular target: T1, 人单核细胞白血病细胞(THP-1)表面LILRB4 (human, UniProt Q8NHJ6 22-448)
[2] = molecular target: T1, 人单核细胞白血病细胞(THP-1)表面LILRB4; remark: listed apart in the source
[3] = molecular target: T1, 人单核细胞白血病细胞(THP-1)表面LILRB4; remark: listed apart in the source

Row | Binder | IC50, 抑制THP-1分泌ARG1 (arginase activity in supernatant, ApoE 0.5μg/mL) [1] | IC50, 生物学活性检测(报告基因), THP-1-NF-κB-Luc cells with ApoE [2] | IC50, 抑制THP-1分泌ARG1 (arginase activity in supernatant, ApoE 0.5μg/mL) [3]
1 | B1 | 23.9 µg/mL |  | 
2 | B2 | 46 µg/mL |  | 
3 | B3 |  | 2.68 µg/mL | 250 µg/mL
4 | B4 |  | 0.756 µg/mL | 31.2 µg/mL
5 | B5 |  | 3.44 µg/mL | 98.5 µg/mL
